Reference: patent publication US12331310B2, “Cell membrane penetrating conjugates for gene editing” (priority 2019, dated 2025)
“And” between values parts separate entries of the source, which are not always exact repeats. Equal entries are not always repeated.

B1: AlbG: recombinant β helical pentapeptide-repeat protein AlbG, amino acid sequence SEQ ID NO: 1 (protein)
chain: MPAKTLESKDYCGESFVSEDRSGQSLESIRFEDCTFRQCNFTEAELNRCKFRECEFVDCNLSLISIPQTSFMEVRFVDCKMLGVNWTSAQWPSVKMEGALSFERCILNDSLFYGLYLAGVKMVECRIHDANFTEADCEDADFTQSDLKGSTFHNTKLTGASFIDAVNYHIDIFHNDIKRARFSLPEAASLLNSLDIELSD
modifications: Amino acid sequence of AlbG protein
B2: EfsQNR: recombinant β helical pentapeptide-repeat protein EfsQNR, amino acid sequence SEQ ID NO: 2 (protein)
chain: GSHMKITYPLPPNLPEQLPLLTNCQLEDEAILENHLYQQIDLPNQEVRNLVFRDAVFDHLSLANGQFASFDCSNVRFEACDFSNVEWLSGSFHRVTFLRCNLTGTNFADSYLKDCLFEDCKADYASFRFANFNLVHFNQTRLVESEFFEVTWKKLLLEACDLTESNWLNTSLKGLDFSQNTFERLTFSPNYLSGLKVTPEQAIYLASALGLVIT
modifications: Amino acid sequence of EfsQNR protein

Key:
Type in all cases: cell-based
[1] = test system: HeLa cells; assay: Cellular uptake of drug (ruthenium metal complex), monitored by MTT assay; settings: 24 hours, uptake correlated to cell death by MTT assay
Experimental: Cellular uptake of drug—HeLa cells were used for determining the enhanced uptake of the drug using the cell penetrating conjugate of the present invention. HeLa cells were seeded at a concentration of 10,000 in a 96-well plate and allowed to grow for 6-8 hours. Ruthenium metal complex and EfsQNR were mixed in different ratios of 1:1, 1:2, and 1:3 to form a conjugate, which was subsequently added to the cells. […] The cell death after 24 hours was monitored by MTT assay as described previously and was correlated to the percentage uptake of ruthenium-EfsQNR conjugate by HeLa cells.
FIG. 16 depicts the cellular uptake of the ruthenium metal complex Ru(CO)3Cl glycinate in HeLa cells. The ruthenium metal complex was conjugated with EfsQNR protein to form a conjugate consisting of ruthenium metal complex-EfsQNR. The HeLa cells were treated with the ruthenium metal complex-EfsQNR conjugate as described above (see “Cellular penetration studies” above) and uptake of the complex was detected by checking the viability of the cells by performing MTT assay as described previously. […] Therefore, it can be ascertained that the conjugate comprising EfsQNR protein facilitated 50-fold higher cellular uptake as compared to ruthenium metal complex alone. […]

[2] = test system: yeast cells (Saccharomyces cerevisiae, Kluveromyces marxianus and Candida albicans); assay: Uptake of A-520 labelled proteins in yeast cells; settings: protein labelled with green fluorescent dye (A-520), 10 μM, 24 hours
Experimental: (§1) The uptake of labelled proteins was checked by treating E-coli and yeast (Kluveromyces) cells with different labelled proteins such as AlbG (SEQ ID NO: 1), EfsQNR (SEQ ID NO: 2). E coli or Kluveromyces cells were inoculated and grown overnight until OD reached 0.6. The cells were diluted to 50 times and 3 micromolar labelled protein (conjugate) was added. The cells were further grown under standard growth condition (37° C. shaking condition) for 24 h. The treated cells were then centrifuged and washed in PBS for 3-4 times. Then the cells were dispersed in 100 microliter PBS and then imaged in fluorescence/confocal microscope.
(§2) • Respective bacteria and yeast strains were inoculated the day before the experiment and allowed to grow overnight; • The cells were centrifuged and 2 ml fresh media was added; • 100-200 μL of cells were added to the mixture; • 10 μM of green labelled CPP was added; • Fresh media was added to bring the volume to 1 mL; • After 24 hours the treated cells were centrifuged and washed in PBS 3-4 times; • the cells were dispersed in 100 microliter PBS and then imaged in fluorescence/confocal microscope (FIGS. 25 and 26). […]

[3] = test system: HeLa cells; assay: MTT toxicity assay of AlbG and EfsQNR proteins; settings: 30 μM protein; for viability as compared to the control cells: MTT; for absorbance values at 570 nm in MTT assay: triplicates, control wells 1.341-1.413
Experimental: Toxicity assay—The industry-standard MTT assay (ex-Sigma Aldrich) was performed to analyse the toxicity of β-helical protein-cytotoxic drug conjugates against mammalian cells, for example HeLa cells. The cells were cultured by using standard protocol. One million cells were seeded in confocal plates (1 cm dish), grown for 6-8 h. A mixture of the cytotoxic drug and the EfsQNR protein (mixed at a ratio of 2:1) was added to the cells and incubated at room temperature for 15 minutes to 24 h to 72 h. After the incubation, the cells were washed with PBS and treated with MTT and further incubated for 24 hours. The cells were then washed and analysed for absorbance values at 570 nm. Viable cells with active metabolism convert MTT into a purple coloured formazan product with an absorbance maximum near 570 nm. Dead cells cannot convert MTT into formazan therefore, by analysing the absorbance values at 570 nm percentage of viable cells can be calculated for a given protein or any other molecule.
MTT assay as described previously was employed to study toxicity of AlbG and EfsQNR proteins against HeLa cells. For the toxicity assay, samples of Placebo, control, AlbG (30 μM) and EfsQNR (30 μM) were used in triplicates. On observing the values, it can be appreciated that the cells treated with 30 μM of AlbG and 30 μM of EfsQNR display 95% viability as compared to the control cells.
The placebo for this experiment was 20 mM Tris buffer of pH 8.0, whereas, the control considered was only HeLa cells without adding any protein or other substrate.

[4] = test system: plant cells (Arabidopsis); assay: Uptake of A-520 labelled proteins in plant cells; settings: protein labelled with green fluorescent dye (A-520), 20 μM, 24 hours
Experimental: • Respective bacteria and yeast strains were inoculated the day before the experiment and allowed to grow overnight; • The cells were centrifuged and 2 ml fresh media was added; • 100-200 μL of cells were added to the mixture; • 10 μM of green labelled CPP was added; • Fresh media was added to bring the volume to 1 mL; • After 24 hours the treated cells were centrifuged and washed in PBS 3-4 times; • the cells were dispersed in 100 microliter PBS and then imaged in fluorescence/confocal microscope (FIGS. 25 and 26). Protocol for Uptake in Plant Cells (Arabidopsis): • Plants were grown for 7 days prior to the experiment; • 20 μM of different cell-penetrating proteins such as AlbG (SEQ ID NO: 1), EfsQNR (SEQ ID NO: 2) labelled with a green fluorescent dye (A-520) were added to the plants in buffer [3 plants grown for 7 days] in 500 μL PBS; • The mixture was placed in a growth room for 24 hours under standard growth conditions (kept static in a room of continuous supply of light and 23° C. temperature); • The plants were washed with PBS 3 times and fresh PBS was then added and cells visualized under microscope. Non-coloured cells such as the cells of the roots and stems were chosen for visualisation to avoid interference (FIGS. 23 and 24). […]

[5] = test system: zebrafish embryos; assay: Uptake of A-520 labelled proteins in zebrafish embryos; settings: protein labelled with green fluorescent dye (A-520), 10 μM, 2 h
[6] = test system: drosophila embryos; assay: Uptake of A-520 labelled proteins in drosophila embryos; settings: protein labelled with green fluorescent dye (A-520), 10 μM, 2 h
[7] = test system: drug resistant strains of bacteria (Pseudovibrio sp. Ad37/5/13/14 and Enterobacter); assay: Uptake of A-520 labelled proteins in bacteria; settings: protein labelled with green fluorescent dye (A-520), 10 μM, 24 hours
Experimental: as §1, §2

Molecule	cellular uptake [1] [%]	uptake observed by confocal laser scanning microscopy [2]	viability as compared to the control cells [3] [%]	absorbance values at 570 nm in MTT assay [3]	uptake observed by confocal laser scanning microscopy [4]	uptake observed by confocal laser scanning microscopy [5]	uptake observed by confocal laser scanning microscopy [6]	uptake observed by confocal laser scanning microscopy [7]
NCC(=O)O.[C-]#[O+].[C-]#[O+].[C-]#[O+].[Cl][Ru] [ruthenium metal complex, Ru(CO)3Cl glycinate]	0.5							
B1		taken up	95	1.03 and 0.932 and 1.002	taken up	taken up	taken up	taken up
B2		taken up	95	0.901 and 1.111 and 0.971	taken up	taken up	taken up	taken up
